From publication doi:10.1101/2020.12.17.423260 come the findings set out here.

The data set deals with 3Dpol-WT (RNA-dependent RNA polymerase) (Foot-and-mouth disease virus, UniProt P03305 1863-2332). In words: fluorescence polarisation anisotropy.
Sequence of 3Dpol-WT (RNA-dependent RNA polymerase) (P03305 1863-2332): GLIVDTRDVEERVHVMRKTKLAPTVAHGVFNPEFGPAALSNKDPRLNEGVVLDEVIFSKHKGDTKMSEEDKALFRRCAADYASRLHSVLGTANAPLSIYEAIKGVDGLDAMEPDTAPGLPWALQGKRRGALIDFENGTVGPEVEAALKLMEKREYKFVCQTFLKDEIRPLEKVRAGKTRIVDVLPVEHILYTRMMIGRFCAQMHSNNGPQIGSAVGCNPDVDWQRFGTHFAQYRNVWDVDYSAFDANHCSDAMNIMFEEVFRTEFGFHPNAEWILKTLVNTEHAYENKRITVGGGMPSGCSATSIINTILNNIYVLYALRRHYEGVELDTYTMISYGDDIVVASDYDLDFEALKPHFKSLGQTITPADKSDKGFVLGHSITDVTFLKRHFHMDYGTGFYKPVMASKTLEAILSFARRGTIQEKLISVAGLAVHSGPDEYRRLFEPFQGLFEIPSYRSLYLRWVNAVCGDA

For AAAAAAAAAAAAA (ssRNA) [13mer poly-A RNA], the dissociation constant Kd turned out to be 5.83 ± 1.3 µM.
